Test results as given in patent US20240150460A1 (SHENGHE CHINA BIOPHARMACEUTICAL, published 2024).

T1: human NKp30-his protein (KACTUS; Cat: NKP-HM430) (human, UniProt O14931 19-135, limits assumed)
T1 construct: Bought protein (KACTUS NKP-HM430); not shown: His tag
T1 sequence (looked up): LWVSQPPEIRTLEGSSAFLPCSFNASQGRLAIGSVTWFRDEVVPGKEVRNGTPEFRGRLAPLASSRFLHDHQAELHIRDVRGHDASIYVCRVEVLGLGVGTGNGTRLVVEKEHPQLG


How the values were obtained:
[1] = biological target: T1, human NKp30-his protein (KACTUS; Cat: …); assay: BLI (Octet Red96e), antibody captured on AHC sensor, 100 nM human NKp30-his in solution, 1:1 fit
Protocol: After equilibration of the AHC sensor with 0.02% PBST (0.02% Tween 20, pH 7.4, 1*PBS) as buffer for 60 s, the NKp30 antibody in the sample plate was immobilized for 300 s and second equilibration was performed for 180 s. […] human NKp30-his protein (KACTUS; Cat: NKP-HM430) was bound with NKp30 antibody for 300 s and then dissociated for 600 s. After dissociation, 10 mM glycine (pH 2.0) was used as regeneration buffer to regenerate for 30 s.
Subtract the result plot for reference channel H1 from the test result plot. The experimental data fit the 1:1 binding model. The molecular weight of 35 kDa was used to calculate the molar concentration of human NKp30 protein.

[2] = biological target: T1, human NKp30-his protein (KACTUS; Cat: …); assay: ELISA, Human-NKp30-His coated at 0.2 µg/mL, antibody from 10 µg/mL in 3-fold steps, goat anti-human Fc, OD450 (Example 11)
Protocol: Human-NKp30-His (purchased from KACTUS, item No. NKP-HM430) was diluted to 0.2 μg/mL with the coating solution (1×PBS, pH 7.4), and was coated into 96-well enzyme-labelled plates at 100 μL/well and allowed to stand overnight at 4° C. The coating solution was poured off, the plate was washed with 1×PBST at 300 μL/well, washed with a plate washer for 4 times, and patted dry on a plate paper. The plate was blocked with 3% skimmed milk powder at 300 μL/well, and incubated at 37° C. for 1 h. The blocking solution was poured off, washed with a plate washer for 4 times, and patted dry on a plate paper. The reference product and the test product were diluted with 3% skimmed milk powder to 10 μg/mL, and the initial concentration was diluted by 3 times. A total of 11 gradients were diluted, and another blank well was set, and only diluent was added. It was incubated at 37° C. and 100 μL/well for 1 h. Liquid in the wells was discarded, and washed with a plate washer for 4 times, and patted dry on a plate paper. The goat anti-human Fc was diluted with 3% skimmed milk powder at 1: 20,000 and 100 μL/well, and incubated at 37° C. for 1 h. The plate was washed with a plate washer for 6 times, and patted dry on a plate paper. TMB color developing solution was added at 100 μL/well, and wrapped with an aluminum foil, and the color was developed at 37° C. for 8 minutes, protected from light. The termination solution 1 M HCl was added at 100 μL/well to terminate the color development reaction. It was read at 450 nm on an enzyme-labeled instrument.

Binder	Kd [1] [nM]	EC50 [2] [µg/mL]
antibody 4 (antibody, V domains shown, expressed in CHO cells) VH: QVQLVESGGGLVQPGGSLRLSCAASGSIFKINAMGWYRQAPGKLRELVAGITSGGSTNYADSVKGRFTISRDNAKNTLYLQMNSLKPDDTAVYYCNQLGFPQYWGQGTQVTVSS	4.97	–
antibody 7 (antibody, V domains shown, expressed in CHO cells) VH: EVQVVESGGGLVQAGGSLRLSCAASGRTFSNYNVGWFRQAPGKEREFLATISESGGSTYYADSVKGRFTISRDNGINMVYLQMSSLKPEDTAVYYCAESRIFSFSYADGRGYAYWGQGTQVTVFS	9.64	–
antibody 15 (antibody, V domains shown, expressed in CHO cells) VH: EVQLVESGGGSVQTGGSLRLSCAASGPTFNFYGMAWFRQAPGKEREFVASIIPGSGDTSYASSVRGRFTISEDNARNNAYLQMNTLKPEDTAVYYCAAGTGGIYSSDYPYWGQGTQVTVSS	0.347	–
antibody 6 (antibody, V domains shown, expressed in CHO cells) VH: QVQLVESGGGLVQPGGSLRLSCAASRAIFPEYSIAWFRQAPGKEREGVALVSRIGDRVDYADSVKGRFTISRDNAKNTVYLQMNSLKPEDTAVYHCAAGQLSSSTYYGDEYVYWGQGTQVTVSS	2.88	–
antibody 3 (antibody, V domains shown, expressed in CHO cells) VH: QLQLVESGGGLVQTGDSTKLSCTASGRSFSINDMGWYRQAPGKLRELVAGITSGGSTNYADSVKGRFTISRDNAKNTVYLQMNSLKPEDTAVYYCNVLGWPDFGSWGQGTQVTVSS	2.07	–
antibody 11 (antibody, V domains shown, expressed in CHO cells) VH: EVQLVESGGGLVQPGESLRLSCVASGGDFRFKSMGWYRQAPGKLRELVAGITTGGVTDYADSVKGRFTISRDNANKAVWLQMNRLKPDDTAVYDCNTLGAAAYDWGQGTQVTVSS	3.06	–
antibody 17 (antibody, V domains shown, expressed in CHO cells) VH: QLQLVESGGGLVQPGGSLRLSCAASGSIDSINAMGWYRQAPGKLRELVAGITRGGDVNYADSVKGRFTISRVDARNTVTVYLQMNSLKPEDTAVYYCNNLGFPSDWAQGTQVTVSS	1.26	–
antibody 9 (antibody, V domains shown, expressed in CHO cells) VH: QVQLVESGGGSVQAGGSLRLSCAASGRTFSDYVMGWFRQAPGKEREFVGTITRIGGMPYYADFVKGRFTISRDYAKNAGYLQLNNLKPEDTALYYCALDLRLRLGVTPREYDYWGQGTQVTVSS	5.56	–
antibody 2 (antibody, V domains shown, expressed in CHO cells) VH: QVQLVESGGGLVQPGGSLRLSCAASGSIFSVNEMGWYRQAPGKLRELVAAITSDGTTAYADSVKGRFTISRDNAKNTVYLQMNSLKPEDTAVYDCNTWPEARGDWGQGTQVTVSS	0.597	–
antibody 22 (antibody, V domains shown, expressed in CHO cells) VH: QVQLVESGGGLVQPGGSLRLSCAASGSIFSANVMGWYRQAPGKLRELVAGMHSGGSANYADSVKGRFTISKDNAKNTMYLQMNSLKPEDTAVYYCNFGLGFDGHDYWGQGTQVTVSA	2.31	–
antibody 10-hu4 (antibody, V domains shown) VH: EVQLVESGGGLVQPGGSLRLSCAASGITFSRSVMGWFRQAPGKLRELVAGITSDDNTDYADSVKGRFTISRDNSKNTLYLQMNSLRAEDTAVYYCNILPDSRLGWGQGTLVTVSS	–	0.00719
antibody 10-hu3 (antibody, V domains shown) VH: EVQLVESGGGLVQPGGSLRLSCAASGITFSRSVMGWFRQAPGKLRELVAGITSDDNTDYADSVKGRFTISRDNSKNTLYLQMNSLRAEDTAVYYCAILPDSRLGWGQGTLVTVSS	–	0.0118
antibody 10-hu5 (antibody, V domains shown) VH: EVQLVESGGGLVQPGGSLRLSCAVSGITFSRSVMGWFRQAPGKLRELVAGITSDDNTDYADSVKGRFTISRDNSKNTLYLQMNSLRAEDTAVYYCNILPDSRLGWGQGTLVTVSS	–	0.0104
antibody 20 (antibody, V domains shown, expressed in CHO cells) VH: EVQLVESGGGLVQPGGSLRLSCAASGSAFSIEPWGWYRQAPGQLRELVAGITSDDKTDYADSVKDRFTISRDNAKNTVFLQMNSLKPEDTAVYYCNVLGWPRDDYWGQGTQVTVSS	1.25	–
antibody 18-hu1 (antibody, V domains shown) VH: EVQLVESGGGLVQPGGSLRLSCAASGIRFSIANMGWYRQAPGKLHEMVSGITSDGFTNYADSVKGRFTISRDNSKNTLYLQMNSLRAEDTAVYYCAKFPTRHYWGQGTLVTVSS	–	0.0348
antibody 12 (antibody, V domains shown, expressed in CHO cells) VH: EVQLVESGGDLVQPGGSLRLSCAAFGSSFSIDMMGWYRQVPGKQRELVAGITKGGFADYADSVKGRFTISMDAAKNTVYLQMNSLKPEDTAVYYCNTLPTHSDWGQGTQVTVSS	0.491	–
antibody 19 (antibody, V domains shown, expressed in CHO cells) VH: EVQVVESGGDLVQPGGSLRLSCAAFGSSFSIDMMGWYRQVPGKQRELVAGITKGGFADYADSVKGRFTISMDAAKNTVYLQMNSLKPEDTAVYYCNTLPTHSDWGQGTQVTVSS	1.81	–

Second part, the binder after the results:

Kd [1] [nM]	EC50 [2] [µg/mL]	Binder
104	–	antibody 5 (antibody, V domains shown, expressed in CHO cells) VH: EVQVVESGGGLVQAGGSLTLSCAASGRPFSTFPTSMGWFRQAPGKEREFVAAISESGLNTYYRDSVKGRFGISRDNAKNTVYLQMNTLTAEDTAVYFCAAAPGYMTTDSQYYLGNKYQYWGQGTQVTVSS
1.46	–	antibody 1 (antibody, V domains shown, expressed in CHO cells) VH: QLQLVESGGGTVQTGGSLRLACVVSGPTYSFYDMGWFRRAPGKEREFVAAVTASGDTTIYADSVKGRFTIARDNAKNTVYLQMNSLKSEDTGAYYCAAGEYSSTAATYYYWGQGTQVTVSS
0.997	–	antibody 16 (antibody, V domains shown, expressed in CHO cells) VH: EVQLVESGGGLVQAGGSLRLSCAASGISLITYNMGWYRQAPGKLRELVAGITTGGITDYTDSVKGRFTISRDNAKNTLYLQMNSLKPEDTAVYYCDTLGMANYWGQGTQVTVSS
9.11	–	antibody 8 (antibody, V domains shown, expressed in CHO cells) VH: QVQLVESGGGLVQTGDSLRLSCAASGRTYDNYAMGWFRQAPGKEREFVAAFSQNGGRTDYADSVKGRFAISDDRSTVHLDMNSLLPEDTAVYYCAARPPAYFSNAVYSKVDEYRYWGQGTQVTVSS
0.433	–	antibody 13 (antibody, V domains shown, expressed in CHO cells) VH: EVQLVESGGGLVQPGGSLRLSCAASGGIFGSTHMGWYRQAPGKLREMVAGITSTGNHRNVADSVKGRFTISKDNAKNTLYLQMNSLKPEDTAVYYCNSFPDQVFNWGQGTQVTVSS
1.35	–	antibody 14 (antibody, V domains shown, expressed in CHO cells) VH: QLQLVESGGGLVQPGGSLRLSCAVSASIFSVNEMGWYRQAPGKLRELVAAITSDGTTAYADSVKGRFTISRDNAKNTVYLQMNSLKPEDTAVYDCNTWPQARGDWGQGTQVTVSS
20.1	–	antibody 21 (antibody, V domains shown, expressed in CHO cells) VH: EVQLVESGGGLVQPGGSLRLSCAASGSTYAFYNMGWFRQRPGKEREFAAAILWGRSGVYTTYADSVKGRFTISRDNAQNTVYLQMNSLKPEDTAVYYCAAGLGTMRANEYDYWGQGTQVTVSS
0.201	0.00522	antibody 10 (antibody, V domains shown, expressed in CHO cells; also called chimeric antibody 10) VH: QVQLVESGGGLVQPGGSLTLSCAVSGITFSRSVMGWFRQAPGKLRELVAGITSDDNTDYADSVKGRFTISRDNAKNTVYLQMNSLKPEDTAVYYCNILPDSRLGWGQGTQVTVSS
–	0.0246	antibody 10-hu2 (antibody, V domains shown) VH: EVQLVESGGGLVQPGGSLRLSCAASGITFSRSVMGWFRQAPGKLRELVAGITSDDNTDYADSVKGRFTISRDNSKNTLYLQMNSLRAEDTAVYYCARLPDSRLGWGQGTLVTVSS
–	0.378	antibody 10-hu1 (antibody, V domains shown) VH: EVQLVESGGGLVQPGGSLRLSCAASGITFSRSVMGWFRQAPGKLRELVSGITSDDNTDYADSVKGRFTISRDNSKNTLYLQMNSLRAEDTAVYYCARLPDSRLGWGQGTLVTVSS
–	0.0105	antibody 18-hu2 (antibody, V domains shown) VH: EVQLVESGGGLVQPGGSLRLSCAASGIRFSIANMGWYRQAPGKLHEMVAGITSDGFTNYADSVKGRFTISRDNSKNTLYLQMNSLRAEDTAVYYCAKFPTRHYWGQGTLVTVSS
